From the supplement of paper PMC10567573

B1: RAB11B (parent)
chain: AVPTDEARAFAEKNNLSFIETSAL

Variants of: B1
Experiment: protein stability index of a GFP-peptide fusion (GPS, HEK-293T) (PSI 1-6); higher = more stable
Conditions: c terminus: a fixed tail appended
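Further: lentivirally expressed fusions sorted by FACS into six bins by GFP to DsRed ratio, PSI derived from sequencing read proportions per bin multiplied by bin number.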

Variant | protein stability index
K13P | 2.12
K13W | 1.94
K13H | 2.24
K13L | 2.14
K13E | 3.9
K13Y | 1.88
K13C | 2.47
K13M | 2.09
K13V | 2.13
K13S | 2.48
K13A | 3.08
K13D | 3.24
K13R | 2.5
K13Q | 2.84
K13F | 2.49
K13I | 2.09
K13T | 2.63
K13G | 3.17
K13N | 1.59
D5S | 2.33
D5I | 2.15
D5M | 2.07
D5A | 2.31
D5L | 2.46

Variant | protein stability index
D5N | 1.92
D5W | 1.38
D5V | 1.99
D5Q | 2.42
D5G | 2.31
D5T | 2.13
D5E | 2.82
D5K | 1.41
D5R | 2.07
D5C | 2.82
D5Y | 2.08
D5F | 2.17
D5H | 2.61
D5P | 1.89
F18N | 4.95
F18D | 5.17
F18S | 4.89
F18Y | 2.97
F18I | 4.23
F18P | 4.88
F18W | 3.67
F18T | 4.97
F18K | 4.67
F18L | 3.53

Variant | protein stability index
F18H | 4.51
F18R | 4.29
F18C | 4.48
F18V | 4.71
F18E | 5.3
F18G | 4.47
F18A | 4.78
F18M | 4.1
F18Q | 4.18
E20P | 3.17
E20C | 2.28
E20Y | 2.31
E20Q | 3.35
E20K | 3.13
E20A | 2.88
E20H | 2.36
E20V | 1.95
E20S | 3.18
E20I | 1.85
E20L | 2.15
E20R | 3.02
E20F | 1.62
E20N | 1.74
E20G | 2.76

Variant | protein stability index
E20W | 1.32
E20T | 2.44
E20D | 2.92
E20M | 2.05
T21D | 4.39
T21A | 3.41
T21E | 4.67
T21F | 2.34
T21C | 2.85
L16E | 5.02
L16W | 3.25
L16K | 4.62
L16R | 4.42
L16M | 4.2
L16V | 4.29
L16G | 4.3
L16T | 4.57
L16Y | 3.18
L16F | 3.36
L16I | 3.95
L16H | 4.06
L16S | 4.37
L16C | 4.1
L16Q | 4

Variant | protein stability index
L16A | 3.8
L16D | 4.52
L16N | 4.25
L16P | 4.47
N14T | 2.88
N14R | 2.27
N14K | 3.38
N14G | 2.73
N14I | 2.23
N14M | 2.25
N14L | 2.23
N14C | 2.18
N14H | 2.26
N14V | 2.18
N14F | 2.25
N14P | 2.53
N14D | 3.96
N14S | 2.84
N14Y | 2.53
N14A | 2.48
N14E | 4.35
N14W | 2.83
N14Q | 3.47
V2W | 2.52

Variant | protein stability index
V2T | 2.62
V2R | 2.35
V2Q | 2.34
V2Y | 2.52
V2S | 3.09
P3W | 2.91
P3A | 2.93
P3C | 2.77
P3V | 3.05
P3F | 1.96
P3M | 2.43
P3T | 3.17
P3Y | 2.55
P3I | 2.63
P3Q | 3.16
P3L | 2.28
P3N | 3.27
P3D | 3.28
P3S | 2.57
P3E | 3.33
P3H | 2.33
P3G | 2.92
P3K | 2.44
P3R | 2.1

Variant | protein stability index
E6K | 2.04
E6I | 2.71
E6M | 2.19
E6A | 2.45
E6C | 2.46
E6W | 2.04
E6P | 2.93
E6S | 2.2
E6F | 1.66
E6Y | 1.67
E6G | 2.58
E6H | 2.61
E6V | 2.08
E6Q | 2.24
E6N | 2.25
E6D | 2.95
E6L | 2.32
E6R | 1.86
E6T | 2
R8F | 2.69
R8I | 2.9
R8Y | 3.12
R8Q | 2.45
R8L | 2.33

Variant | protein stability index
R8P | 2.65
R8T | 2.67
R8C | 2.78
R8W | 2.94
R8N | 3.06
R8M | 2.45
R8A | 2.77
R8E | 3.31
R8D | 3.37
R8H | 2.99
R8G | 3.22
R8S | 2.46
R8V | 3.04
R8K | 3.08
F10H | 3.74
F10C | 3.1
F10R | 2.74
F10N | 3.25
F10M | 2.9
F10E | 4.11
F10S | 3.28
F10Q | 3.45
F10L | 3.19
F10Y | 3.2

Variant | protein stability index
F10A | 3.38
F10G | 3.12
F10K | 2.89
F10P | 2.73
F10W | 2.34
F10V | 3.41
F10T | 3.78
F10D | 4.06
F10I | 3.33
T4P | 2.5
T4W | 2.21
T4H | 2.5
T4I | 2.77
T4M | 1.98
T4G | 3.17
T4Q | 3.05
T4F | 2
T4A | 2.45
T4E | 3.23
T4R | 1.77
T4V | 2.78
T4C | 2.78
T4D | 3.63
T4S | 2.6

Variant | protein stability index
T4K | 2
T4Y | 2.37
T4L | 2.33
T4N | 2.65
A11N | 2.87
A11D | 3.88
A11S | 2.68
A11W | 2.48
A11Y | 2.15
A11I | 2.66
A11L | 2.4
A11E | 3.69
A11R | 2.35
A11G | 2.16
A11C | 3.16
A11M | 2.8
A11H | 2.3
A11K | 2.19
A11P | 2.8
A11T | 2.71
A11V | 2.3
A11Q | 2.85
A11F | 2.69
S17R | 3.41

Variant | protein stability index
S17C | 3
S17K | 3.79
S17W | 2.64
S17D | 3.48
S17A | 2.78
S17V | 3.15
S17Q | 4.23
S17N | 2.86
S17G | 3.7
S17F | 2.59
S17L | 2.77
S17T | 2.93
S17I | 2.89
S17H | 3.07
S17Y | 2.85
S17P | 4.19
S17M | 3.1
S17E | 4.62
A9R | 2.32
A9W | 1.78
A9N | 2.52
A9Y | 2.48
A9G | 2.85
A9C | 2.49

Variant | protein stability index
A9Q | 3.14
A9L | 2.98
A9I | 2.45
A9T | 3.02
A9F | 2.63
A9K | 1.91
A9P | 2.44
A9V | 2.71
A9E | 3.82
A9M | 2.79
A9H | 2.07
A9D | 3.4
A9S | 2.33
I19D | 4.99
I19V | 3.26
I19F | 4.37
I19R | 4.54
I19S | 4.56
I19E | 4.59
I19T | 4.11
I19Q | 4.38
I19M | 4.21
I19Y | 3.73
I19W | 3.62

Variant | protein stability index
I19L | 3.25
I19H | 3.49
I19P | 5.04
I19C | 4.34
I19G | 4.64
I19N | 4.1
I19K | 4.79
I19A | 4.6
E12S | 2.08
E12Q | 2.52
E12I | 1.99
E12A | 2.89
E12P | 2.34
E12W | 1.6
E12K | 1.93
E12H | 2.65
E12V | 2.47
E12Y | 1.93
E12T | 2.61
E12F | 1.74
E12L | 2.02
E12N | 2.02
E12G | 2.16
E12R | 2.15

Variant | protein stability index
E12M | 1.97
E12D | 2.81
E12C | 1.91
A7Y | 2.94
A7G | 3.14
A7N | 3.1
A7E | 2.92
A7Q | 3.46
A7S | 2.79
A7P | 2.86
A7F | 1.98
A7W | 2.58
A7M | 2.27
A7I | 2.39
A7D | 4.09
A7T | 3.17
A7H | 2.23
A7R | 2.6
A7C | 2.47
A7V | 2.7
A7K | 2.5
A7L | 2.16
